The assay addresses T1, hVEGFR-3 (Homo sapiens, UniProt P35916).
T1 construct: Ig (immunoglobulin fusion partner); made in house
T1 sequence (P35916 25-775 limits assumed): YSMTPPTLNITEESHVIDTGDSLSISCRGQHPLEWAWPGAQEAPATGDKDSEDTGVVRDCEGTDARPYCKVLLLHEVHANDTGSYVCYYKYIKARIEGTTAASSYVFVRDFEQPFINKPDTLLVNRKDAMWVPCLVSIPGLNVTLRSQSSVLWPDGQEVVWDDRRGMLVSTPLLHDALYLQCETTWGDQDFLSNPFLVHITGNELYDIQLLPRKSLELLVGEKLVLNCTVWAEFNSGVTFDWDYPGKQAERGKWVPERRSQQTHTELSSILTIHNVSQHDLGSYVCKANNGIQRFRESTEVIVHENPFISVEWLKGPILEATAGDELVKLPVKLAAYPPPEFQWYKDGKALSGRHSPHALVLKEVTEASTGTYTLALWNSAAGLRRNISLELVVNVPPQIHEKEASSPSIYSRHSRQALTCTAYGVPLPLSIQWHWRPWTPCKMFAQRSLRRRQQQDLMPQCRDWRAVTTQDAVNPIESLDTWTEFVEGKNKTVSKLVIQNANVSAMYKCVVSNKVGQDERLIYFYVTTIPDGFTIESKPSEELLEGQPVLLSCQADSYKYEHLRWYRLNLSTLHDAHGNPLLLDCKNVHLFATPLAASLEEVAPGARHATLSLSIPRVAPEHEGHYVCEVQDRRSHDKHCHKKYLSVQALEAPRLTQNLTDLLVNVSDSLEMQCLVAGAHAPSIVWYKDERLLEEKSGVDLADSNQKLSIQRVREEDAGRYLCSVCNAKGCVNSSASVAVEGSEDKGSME
Description: Biosensor (BIAcore) analysis of ligand binding to immobilized VEGFR-3. The following applies: hVEGFR-3 bivalent immunoglobulin fusion protein immobilized; global fitting, 1:1 Langmuirian model with mass transfer. On the procedure: Biosensor Analysis. All preparations were analysed for homogeneity and buffer exchanged by micropreparative size exclusion HPLC using a Superose 12 (3.2/30) column installed in a SMART system (Amersham Pharmacia Biotech, Uppsala, Sweden) immediately prior to use (Nice and Catimel, Bioessays, 21:339-352, 1999). The concentrations of VEGF-C and VEGF-D were determined by absorbance at 280 nm using E280 1% 1 cm of 0-65. Receptor domains were coupled to the carboxymethylated dextran layer of a CM5 sensor chip using standard amine coupling chemistry (Nice and Catimel, Bioessays, 21:339-352, 1999) for analysis of ligad binding using a BIAcore 2000 optical biosensor (BIAcore, Uppsala, Sweden). The levels immobilized were 3,000 RU and 7,000 RU for VEGFR-2 and VEGFR-3, respectively. […] The apparent binding affinities of VEGF-C and VEGF-C156S to receptor domains were determined by analysis of the initial dissociation phase to obtain the kd, which was then used to constrain a global analysis of the association region of the curves, assuming a 1:1 Langmuirian model. Data were analysed using BLAevaluation 3.0 (BIAcore, Uppsala, Sweden) as described previously (Catimel et al., J. Chromatogr., 776:15-30, 1997). […]
Background: Surface plasmon resonance follows binding to a sensor surface in real time, without labels.

B1: VEGF-C156S: VEGFR-3 specific mutant form of VEGF-C, cysteine 156 changed into serine; recombinant human (Thr103 to Ile225) (protein, UniProt P49767 103-225, looked up, variant C156S)
chain: TEETIKFAAAHYNTEILKSIDNEWRKTQCMPREVCIDVGKEFGVATNTFFKPPSVSVYRCGGCCNSEGLQCMNTSTSYLSKTLFEITVPLSQGPKPVTISFANHTSCRCMSKLDVYRQVHSII
On to B1, for which the Ka is 3500 M⁻¹ s⁻¹.

These data come from patent US20080317723A1, “LYMPHATIC ENDOTHELIAL CELLS MATERIALS AND METHODS” (VEGENICS LIMITED, priority 2001, published 2008).
